Results: US8703708

Legend:
Test in all cases: cell-based or functional assay
[1] = molecular target: Lrp6 + Fzd7 co-expressed on STF (superTOPFLASH) reporter cells (UniProt O88572)
[2] = molecular target: Lrp6 + Fzd4 co-expressed on STF (superTOPFLASH) reporter cells (UniProt O88572)
[3] = molecular target: Lrp5 + Fzd7 co-expressed on STF (superTOPFLASH) reporter cells (UniProt Q91VN0)
[4] = molecular target: Lrp5 + Fzd4 co-expressed on STF (superTOPFLASH) reporter cells (UniProt Q91VN0)
Lrp5 + Fzd4 co-expressed on STF (superTOPFLASH) reporter cells, sequence (Q91VN0 31-1614 limits assumed, chain 1 of 2): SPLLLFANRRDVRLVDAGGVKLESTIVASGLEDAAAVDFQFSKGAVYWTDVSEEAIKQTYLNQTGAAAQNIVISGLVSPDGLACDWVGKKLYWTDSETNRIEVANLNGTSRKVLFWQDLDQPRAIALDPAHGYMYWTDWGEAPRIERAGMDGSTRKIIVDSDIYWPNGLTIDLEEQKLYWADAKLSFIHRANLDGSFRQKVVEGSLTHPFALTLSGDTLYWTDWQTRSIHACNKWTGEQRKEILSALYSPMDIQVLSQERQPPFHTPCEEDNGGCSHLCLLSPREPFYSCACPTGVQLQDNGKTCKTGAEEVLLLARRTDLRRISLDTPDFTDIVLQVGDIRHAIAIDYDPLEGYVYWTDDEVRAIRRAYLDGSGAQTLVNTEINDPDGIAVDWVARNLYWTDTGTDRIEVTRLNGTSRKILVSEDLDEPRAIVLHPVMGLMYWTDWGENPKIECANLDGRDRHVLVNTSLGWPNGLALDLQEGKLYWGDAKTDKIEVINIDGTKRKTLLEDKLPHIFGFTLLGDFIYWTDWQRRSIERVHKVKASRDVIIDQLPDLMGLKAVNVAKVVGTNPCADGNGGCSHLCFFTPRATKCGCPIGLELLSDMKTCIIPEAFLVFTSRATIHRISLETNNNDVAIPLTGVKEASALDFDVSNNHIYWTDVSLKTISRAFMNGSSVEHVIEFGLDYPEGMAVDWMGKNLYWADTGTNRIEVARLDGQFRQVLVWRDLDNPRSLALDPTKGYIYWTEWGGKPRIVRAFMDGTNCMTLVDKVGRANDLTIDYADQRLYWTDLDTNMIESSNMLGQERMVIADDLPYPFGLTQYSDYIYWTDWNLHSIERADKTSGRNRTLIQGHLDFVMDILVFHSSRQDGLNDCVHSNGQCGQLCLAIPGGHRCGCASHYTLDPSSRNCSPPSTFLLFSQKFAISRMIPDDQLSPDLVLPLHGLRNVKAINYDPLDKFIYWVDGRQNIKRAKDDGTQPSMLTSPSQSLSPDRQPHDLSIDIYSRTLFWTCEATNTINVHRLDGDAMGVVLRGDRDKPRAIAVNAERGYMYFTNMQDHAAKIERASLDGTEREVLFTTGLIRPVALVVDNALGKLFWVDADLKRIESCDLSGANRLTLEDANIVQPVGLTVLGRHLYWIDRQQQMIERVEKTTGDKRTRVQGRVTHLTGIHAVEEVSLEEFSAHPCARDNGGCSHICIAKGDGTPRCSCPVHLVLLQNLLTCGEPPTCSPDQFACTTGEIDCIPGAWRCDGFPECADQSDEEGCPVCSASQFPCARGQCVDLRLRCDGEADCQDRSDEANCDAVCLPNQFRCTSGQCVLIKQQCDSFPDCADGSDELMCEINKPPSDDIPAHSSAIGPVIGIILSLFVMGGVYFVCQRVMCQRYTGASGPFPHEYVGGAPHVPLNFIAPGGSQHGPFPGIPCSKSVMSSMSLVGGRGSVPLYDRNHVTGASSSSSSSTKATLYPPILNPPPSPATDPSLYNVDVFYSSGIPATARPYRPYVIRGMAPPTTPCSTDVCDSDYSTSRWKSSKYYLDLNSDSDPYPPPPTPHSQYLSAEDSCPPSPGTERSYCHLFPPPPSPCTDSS
Lrp5 + Fzd4 co-expressed on STF (superTOPFLASH) reporter cells, sequence (Q61088 37-537 limits assumed, chain 2 of 2, further chain): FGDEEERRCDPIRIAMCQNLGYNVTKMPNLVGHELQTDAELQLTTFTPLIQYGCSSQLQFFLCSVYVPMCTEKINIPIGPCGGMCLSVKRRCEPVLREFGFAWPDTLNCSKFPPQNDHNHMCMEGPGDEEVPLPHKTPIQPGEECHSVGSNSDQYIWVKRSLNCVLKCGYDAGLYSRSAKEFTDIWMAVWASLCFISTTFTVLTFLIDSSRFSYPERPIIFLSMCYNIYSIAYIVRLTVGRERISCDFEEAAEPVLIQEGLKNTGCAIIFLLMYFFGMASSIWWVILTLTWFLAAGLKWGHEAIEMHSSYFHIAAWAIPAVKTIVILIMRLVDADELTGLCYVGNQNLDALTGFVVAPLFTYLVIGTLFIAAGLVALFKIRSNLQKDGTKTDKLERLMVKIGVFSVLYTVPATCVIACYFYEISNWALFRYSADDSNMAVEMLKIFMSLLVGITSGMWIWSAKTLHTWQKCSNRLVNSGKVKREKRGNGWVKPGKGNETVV

Lrp6 + Fzd4 co-expressed on STF (superTOPFLASH) reporter cells, sequence (O88572 20-1613 limits assumed, chain 1 of 2): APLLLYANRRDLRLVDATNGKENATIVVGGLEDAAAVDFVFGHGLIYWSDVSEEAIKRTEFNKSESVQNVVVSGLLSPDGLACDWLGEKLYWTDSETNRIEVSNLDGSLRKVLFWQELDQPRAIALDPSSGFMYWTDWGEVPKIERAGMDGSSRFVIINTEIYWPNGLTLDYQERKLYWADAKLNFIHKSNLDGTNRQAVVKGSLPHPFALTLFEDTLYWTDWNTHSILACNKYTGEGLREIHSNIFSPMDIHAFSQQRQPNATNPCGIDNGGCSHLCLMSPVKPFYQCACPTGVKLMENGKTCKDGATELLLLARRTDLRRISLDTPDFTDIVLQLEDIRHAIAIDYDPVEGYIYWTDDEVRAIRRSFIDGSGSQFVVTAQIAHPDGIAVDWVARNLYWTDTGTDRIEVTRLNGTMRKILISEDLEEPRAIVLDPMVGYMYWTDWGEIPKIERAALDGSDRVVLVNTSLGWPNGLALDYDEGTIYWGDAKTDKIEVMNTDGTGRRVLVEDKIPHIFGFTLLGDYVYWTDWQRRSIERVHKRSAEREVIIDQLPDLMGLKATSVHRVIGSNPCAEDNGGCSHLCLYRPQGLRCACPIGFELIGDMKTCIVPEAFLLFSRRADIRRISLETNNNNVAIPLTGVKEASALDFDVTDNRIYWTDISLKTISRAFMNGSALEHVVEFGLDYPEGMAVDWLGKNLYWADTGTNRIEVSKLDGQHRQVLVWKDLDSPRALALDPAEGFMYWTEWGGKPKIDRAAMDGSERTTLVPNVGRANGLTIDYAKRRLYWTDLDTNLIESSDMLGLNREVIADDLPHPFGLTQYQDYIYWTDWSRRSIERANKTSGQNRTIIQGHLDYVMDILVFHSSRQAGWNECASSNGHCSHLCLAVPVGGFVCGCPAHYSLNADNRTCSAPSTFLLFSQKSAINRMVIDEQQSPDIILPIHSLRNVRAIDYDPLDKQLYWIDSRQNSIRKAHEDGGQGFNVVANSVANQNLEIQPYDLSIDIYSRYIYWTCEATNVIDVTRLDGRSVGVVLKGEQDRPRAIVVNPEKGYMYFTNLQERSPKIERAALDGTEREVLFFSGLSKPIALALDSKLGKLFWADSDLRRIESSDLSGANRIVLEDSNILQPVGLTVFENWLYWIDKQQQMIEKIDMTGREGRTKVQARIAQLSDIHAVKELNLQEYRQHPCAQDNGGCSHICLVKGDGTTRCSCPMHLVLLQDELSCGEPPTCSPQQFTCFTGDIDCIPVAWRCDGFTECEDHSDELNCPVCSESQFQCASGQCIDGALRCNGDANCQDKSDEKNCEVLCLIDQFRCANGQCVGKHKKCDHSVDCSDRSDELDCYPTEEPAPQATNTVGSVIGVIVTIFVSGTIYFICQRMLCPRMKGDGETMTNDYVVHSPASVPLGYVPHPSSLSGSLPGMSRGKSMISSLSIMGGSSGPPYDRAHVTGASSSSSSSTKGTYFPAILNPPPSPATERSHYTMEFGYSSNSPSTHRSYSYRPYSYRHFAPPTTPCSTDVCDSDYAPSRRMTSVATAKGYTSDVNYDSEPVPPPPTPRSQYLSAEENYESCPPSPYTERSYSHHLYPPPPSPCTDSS
Lrp6 + Fzd4 co-expressed on STF (superTOPFLASH) reporter cells, sequence (Q61088 37-537 limits assumed, chain 2 of 2, further chain): as the sequence (Q61088 37-537 limits assumed, chain 2 of 2, further chain) above
Lrp6 + Fzd7 co-expressed on STF (superTOPFLASH) reporter cells, sequence (O88572 20-1613 limits assumed, chain 1 of 2, other chains not shown): as the sequence (O88572 20-1613 limits assumed, chain 1 of 2) above
Lrp5 + Fzd7 co-expressed on STF (superTOPFLASH) reporter cells, sequence (Q91VN0 31-1614 limits assumed, chain 1 of 2, other chains not shown): as the sequence (Q91VN0 31-1614 limits assumed, chain 1 of 2) above

## Wnt7b (ORF cloned from C57BL6 kidney cDNA, expressed by 293 cells or bone marrow macrophages) (from UniProt P28047 25-349) (ligand)
[1]
  Firefly Luciferase, absolute light units, STF reporter cells co-cultured with 293-Wnt7b (293-control: 464) (absolute light units): 11500
[2]
  Firefly Luciferase, absolute light units, STF reporter cells co-cultured with 293-Wnt7b (293-control: 573) (absolute light units): 10100
[3]
  Firefly Luciferase, absolute light units, STF reporter cells co-cultured with 293-Wnt7b (293-control: 16172) (absolute light units): 51600
[4]
  Firefly Luciferase, absolute light units, STF reporter cells co-cultured with 293-Wnt7b (293-control: 6430) (absolute light units): 26900
